Data on seven molecules can be found in paper PMC10868842, “Structural basis of the recognition of adeno-associated virus by the neurological system-related receptor carbonic anhydrase IV” (PLOS Pathogens, 2024).

Residue numbers refer to the chain shown, from its start. Numbers in names are those of the source.

The target of test [1] is T1, AAV9P31 capsid (adeno-associated virus 9 variant with the 7-mer WPTSYDA inserted in VP3 VR-VIII) (adeno-associated virus 9, UniProt Q6JC40 1-736, WPTSYDA inserted between Q588 and A589).
T1 construct: Assembled icosahedral virus particle carrying a GFP genome; capsids made from a RepCap plasmid usually hold VP1, VP2 and VP3 (surmise); also called AAV9P31 particles; AAV9P31 virion; source: HEK293T, triple-plasmid transfection, purified (iodixanol gradient ultracentrifugation)
The test can be described thus: cryo-EM structure; AAV9P31 on the grid, Car4 (W22-S277) added and incubated for 5 minutes; icosahedral reconstruction and block-based reconstruction of the 3-fold axis blocks. The settings on record: both partners purified.

Test [2] concerns the target T1, AAV9P31 capsid (adeno-associated virus …). The test can be described thus: SPR; BIAcore 8K; AAV9P31 particles immobilised on a CM5 chip by amide coupling (sodium acetate pH 4.0); WT or mutated Car4 proteins flowed over at 30 ul/min, 25 °C, PBST; regeneration with 10 mM glycine pH 2.0. The conditions noted are these: both partners purified. For orientation: SPR reads the build-up and loss of mass on a sensor chip optically.

B1: Mus musculus carbonic anhydrase IV (Car4), amino acids W22 to S277 (receptor)
chain: WCYEIQTKDPRSSCLGPEKWPGACKENQQSPINIVTARTKVNPRLTPFILVGYDQKQQWPIKNNQHTVEMTLGGGACIIGGDLPARYEAVQLHLHWSNGNDNGSEHSIDGRHFAMEMHIVHKKLTSSKEDSKDKFAVLAFMIEVGDKVNKGFQPLVEALPSISKPHSTSTVRESSLQDMLPPSTKMYTYFRYNGSLTTPNCDETVIWTVYKQPIKIHKNQFLEFSKNLYYDEDQKLNMKDNVRPLQPLGKRQVFKS
notes: carbonic anhydrase IV (Car4), Mus musculus, residues 22-277 (W22 to S277); the functional rows use this molecule for Car4; also called wt Car4; truncated Car4 (22-277); not shown: GST, N-terminal, cleaved
As a reminder, the stoichiometry N is a count of units in the complex or per binding partner. The term Kd denotes the equilibrium constant for the complex coming apart. A lower Kd goes with higher affinity. Regarding B1, the “stoichiometry N” value in test [1] was roughly 3 Car4 per virion. For the same molecule, the Kd in test [2] turned out to be 106 nM.

B2: Car4 (22-277) Q79A (receptor, Mus musculus, UniProt Q64444 22-277, looked up)
chain: B1 chain with Q58A
notes: carbonic anhydrase IV (Car4), Mus musculus, residues 22-277; also called Q79A_(Car4); source: E. coli BL21 (DE3), purified as the wild type; not shown: GST, N-terminal, cleaved
As to B2, the Kd in test [2] turned out to be 292 nM.

B3: Car4 (22-277) H187E (mouse residue changed to its hCar4 counterpart) (receptor, Mus musculus, UniProt Q64444 22-277, looked up)
chain: B1 chain with H166E
notes: carbonic anhydrase IV (Car4), Mus musculus, residues 22-277; also called H187E_(Car4); source: E. coli BL21 (DE3), purified as the wild type; not shown: GST, N-terminal, cleaved
Consider B3, for which, in test [2], the Kd stood at 0.206 nM.

B4: Car4 (22-277) E90M (mouse residue changed to its hCar4 counterpart) (receptor, Mus musculus, UniProt Q64444 22-277, looked up)
chain: B1 chain with E69M
notes: carbonic anhydrase IV (Car4), Mus musculus, residues 22-277; also called E90M_(Car4); source: E. coli BL21 (DE3), purified as the wild type; not shown: GST, N-terminal, cleaved
B4 came in with a Kd in test [2] of 32.3 nM.

B5: Car4 (22-277) V72S (mouse residue changed to its hCar4 counterpart) (receptor, Mus musculus, UniProt Q64444 22-277, looked up)
chain: B1 chain with V51S
notes: carbonic anhydrase IV (Car4), Mus musculus, residues 22-277; also called V72S_(Car4); source: E. coli BL21 (DE3), purified as the wild type; not shown: GST, N-terminal, cleaved
Regarding B5, in test [2], binding was characterised by a dissociation constant (Kd) of 60.7 nM.

B6: Car4 (22-277) I70A (receptor, Mus musculus, UniProt Q64444 22-277, looked up)
chain: B1 chain with I49A
notes: carbonic anhydrase IV (Car4), Mus musculus, residues 22-277; also called I70A_(Car4); source: E. coli BL21 (DE3), purified as the wild type; not shown: GST, N-terminal, cleaved
On to B6, for which the Kd in test [2] was determined as 743 nM.

B7: Car4 (22-277) T92A (receptor, Mus musculus, UniProt Q64444 22-277, looked up)
chain: B1 chain with T71A
notes: carbonic anhydrase IV (Car4), Mus musculus, residues 22-277; also called T92A_(Car4); source: E. coli BL21 (DE3), purified as the wild type; not shown: GST, N-terminal, cleaved
B7 showed a Kd in test [2] of 379 nM.
